Assay results as given in paper doi:10.1101/736868 (bioRxiv, 2019).

Molecular target: the molecule itself
Experiment: SEC-MALS; SEC-MALLS, S-200 Superdex 10/300, 0.5 ml/min, 1x PBS (legend: TBS), protein at 33 µM; monomer and dimer

B1: purified recombinant mouse CAVII protein (mCAVII) (enzyme, UniProt Q9ERQ8 1-264, looked up)
chain: MTGHHCWGYGQDDGPSNWHKLYPIAQGDRQSPINIISSQAVYSPSLQPLELFYEACMSLSITNNGHSVQVDFNDSDDRTVVSGGPLEGPYRLKQLHFHWGKKRDMGSEHTVDGKSFPSELHLVHWNAKKYSTFGEAAAAPDGLAVVGVFLETGDEHPSMNRLTDALYMVRFKDTKAQFSCFNPKCLLPTSRHYWTYPGSLTTPPLSESVTWIVLREPIRISERQMEKFRSLLFTSEDDERIHMVDNFRPPQPLKGRVVKASFQA
notes: carbonic anhydrase VII, mouse; theoretical size of the monomer printed as 30.5 kDa; also called carbonic anhydrase VII; source: CHOEBNALT85 cell line, produced as a secreted protein, purified
B1 was tested, and the “stoichiometry N” value was 2.
